Source: the supplement of paper PMC10567573

B1: WDR41 (parent)
chain: HVGELIIWDALDWTMQAYERNFWD
B2: NR2F2 (parent)
chain: NIPFFPDLQITDQVALLRLTWSEL

Variants of: B1
Assay: protein stability index of a GFP-peptide fusion (GPS, HEK-293T) (PSI 1-6); higher = more stable
Settings: c terminus: a fixed tail appended
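Note: lentivirally expressed fusions sorted by FACS into six bins by GFP to DsRed ratio, PSI derived from sequencing read proportions per bin multiplied by bin number.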

First: D24H
Second: I7T
The protein stability index of the first is higher: 4.96 for the first, 1.41 for the second.

Compared with I7M, I7E is higher in protein stability index: 1.52 for the first, 2.41 for the second.

Going from I7G to I7Q, the protein stability index rises from 1.8 to 2.11.

Going from A17T to A17K, the protein stability index rises from 1.74 to 2.09.

Going from A17W to L5F, the protein stability index rises from 3.37 to 3.54.

First: L5P
Second: Y18C
The protein stability index of the first is lower: 1.99 for the first, 3.15 for the second.

Compared with Y18S, E19N is higher in protein stability index: 1.07 for the first, 1.91 for the second.

Going from E19C to E19D, the protein stability index falls from 2.17 to 1.67.

First: T14V
Second: W13F
The protein stability index of the first is lower: 2.54 for the first, 4.66 for the second.

Compared with W13E, W13A is higher in protein stability index: 1.59 for the first, 1.98 for the second.

Going from W13T to W13S, the protein stability index rises from 1.97 to 3.29.

Compared with V2I, V2C is lower in protein stability index: 2.08 for the first, 1.97 for the second.

First: V2D
Second: V2R
The protein stability index of the first is higher: 2.01 for the first, 1.09 for the second.

First: A10T
Second: A10H
The protein stability index of the first is higher: 3.56 for the first, 1.61 for the second.

Going from A10W to G3T, the protein stability index falls from 3.36 to 2.82.

Going from G3D to G3Y, the protein stability index rises from 2.35 to 2.42.

Compared with W23G, W23K is lower in protein stability index: 2.62 for the first, 1.39 for the second.

Compared with W23N, W23V is higher in protein stability index: 1.71 for the first, 3.03 for the second.

Going from W23L to H1M, the protein stability index rises from 1.8 to 3.52.

First: H1C
Second: H1P
The protein stability index of the first is higher: 2.04 for the first, 1.49 for the second.

First: H1I
Second: D9H
The protein stability index of the first is higher: 4.28 for the first, 2.88 for the second.

Going from D9W to D9C, the protein stability index falls from 2.99 to 2.29.

Compared with L11R, L11Q is higher in protein stability index: 2.83 for the first, 2.86 for the second.

Compared with L11P, W8E is higher in protein stability index: 2.03 for the first, 2.13 for the second.

Going from W8M to W8D, the protein stability index falls from 2.85 to 2.74.

Compared with W8P, W8Y is lower in protein stability index: 2.16 for the first, 1.42 for the second.

Going from D12F to D12V, the protein stability index falls from 3.35 to 2.81.

First: F22E
Second: F22K
The protein stability index of the first is higher: 3.79 for the first, 1.41 for the second.

Going from F22S to F22L, the protein stability index rises from 1.57 to 2.35.

Going from I6P to I6N, the protein stability index falls from 2.41 to 2.17.

Compared with I6C, I6H is higher in protein stability index: 1.47 for the first, 1.59 for the second.

First: I6G
Second: I6S
The protein stability index of the first is lower: 1.22 for the first, 1.66 for the second.

Going from N21D to N21G, the protein stability index rises from 1.87 to 2.56.

Going from E4L to E4H, the protein stability index falls from 2.92 to 2.13.

Going from E4A to E4S, the protein stability index falls from 2.85 to 2.34.

First: R20K
Second: R20L
The protein stability index of the first is lower: 1.5 for the first, 3.16 for the second.

Compared with R20P, R20A is lower in protein stability index: 2.05 for the first, 1.32 for the second.

Variants of: B2
Assay: as above
Settings: c terminus: a fixed tail appended

Compared with F5I, F5C is higher in protein stability index: 2.26 for the first, 3.66 for the second.

Going from F5N to F5D, the protein stability index rises from 1.73 to 2.

Going from F5V to F5Q, the protein stability index falls from 2.41 to 2.13.

F5P and F5T are the same in protein stability index: 1.49 for the first, 1.49 for the second.

Compared with F5M, F5W is lower in protein stability index: 1.78 for the first, 1.68 for the second.

First: F5L
Second: F5E
The protein stability index of the first is lower: 1.56 for the first, 1.67 for the second.

Going from F5K to F5A, the protein stability index falls from 2.17 to 1.98.

First: F5H
Second: F5S
The protein stability index of the first is lower: 1.79 for the first, 2.16 for the second.

Compared with F5G, F5R is higher in protein stability index: 1.7 for the first, 2.34 for the second.

F5Y and N1K are the same in protein stability index: 2.26 for the first, 2.26 for the second.

First: N1M
Second: N1D
The protein stability index of the first is lower: 3.01 for the first, 3.27 for the second.

Compared with N1H, N1E is lower in protein stability index: 2.44 for the first, 2.36 for the second.

Going from N1P to N1S, the protein stability index falls from 2.45 to 1.75.

First: N1T
Second: N1Q
The protein stability index of the first is higher: 2.02 for the first, 1.1 for the second.

Going from N1Y to N1W, the protein stability index falls from 2.74 to 2.72.

Going from N1C to N1R, the protein stability index rises from 2.81 to 4.3.

Going from N1L to N1F, the protein stability index rises from 2.23 to 3.02.

Compared with I2P, I2E is lower in protein stability index: 2.9 for the first, 2.07 for the second.

Compared with I2V, I2Q is lower in protein stability index: 2.03 for the first, 1.78 for the second.

First: I2N
Second: I2F
The protein stability index of the first is lower: 2.02 for the first, 2.28 for the second.

Compared with I2W, I2L is lower in protein stability index: 3.13 for the first, 1.88 for the second.

Compared with I2Y, I2C is higher in protein stability index: 1.47 for the first, 2.42 for the second.

Compared with I2G, I2S is higher in protein stability index: 1.46 for the first, 2.38 for the second.

Compared with I2R, I2H is higher in protein stability index: 1.94 for the first, 2.1 for the second.

First: I2A
Second: I2M
The protein stability index of the first is lower: 1.05 for the first, 2.5 for the second.

First: I2K
Second: I2T
The protein stability index of the first is higher: 2.25 for the first, 2.01 for the second.

Compared with I2D, P6A is higher in protein stability index: 2.85 for the first, 2.97 for the second.

First: P6G
Second: P6F
The protein stability index of the first is higher: 3.94 for the first, 3.43 for the second.

Compared with P6D, P6E is higher in protein stability index: 2.23 for the first, 2.5 for the second.

First: P6C
Second: F4D
The protein stability index of the first is lower: 1.8 for the first, 2.44 for the second.

Going from F4P to F4T, the protein stability index falls from 2.58 to 2.03.

First: F4A
Second: F4S
The protein stability index of the first is higher: 2.34 for the first, 2.04 for the second.

First: F4E
Second: F4G
The protein stability index of the first is higher: 2.22 for the first, 2.2 for the second.

First: F4L
Second: F4Y
The protein stability index of the first is higher: 3.09 for the first, 2.56 for the second.

Compared with F4M, F4Q is higher in protein stability index: 2.26 for the first, 2.62 for the second.

First: F4W
Second: F4V
The protein stability index of the first is lower: 1.44 for the first, 2.42 for the second.

Compared with F4N, F4C is lower in protein stability index: 2.79 for the first, 2.63 for the second.

First: F4H
Second: F4R
The protein stability index of the first is higher: 2.35 for the first, 1.37 for the second.

Compared with F4I, F4K is lower in protein stability index: 2.63 for the first, 2.12 for the second.

First: P3V
Second: P3I
The protein stability index of the first is higher: 3.79 for the first, 2.13 for the second.

First: P3Q
Second: P3G
The protein stability index of the first is higher: 3.08 for the first, 2.86 for the second.

Compared with P3N, P3E is lower in protein stability index: 2.28 for the first, 2.12 for the second.

Going from P3T to P3A, the protein stability index rises from 2.46 to 3.65.

First: P3K
Second: P3S
The protein stability index of the first is higher: 3.61 for the first, 1.41 for the second.

First: P3C
Second: P3H
The protein stability index of the first is higher: 2.88 for the first, 1.82 for the second.

Compared with P3L, P3W is higher in protein stability index: 1.92 for the first, 3.62 for the second.

In the case of P3D, the protein stability index is reported as 2.43.
